Laboratory results published in paper PMC10457309.

Molecular target: HH-120 (IgM-like hACE2-Fc fusion protein) (UniProt Q9BYF1)
Assay: SPR

Substance | Kd [nM]
S trimer protein of the SARS-CoV-2 Omicron variant (from UniProt P0DTC2) (natural protein) | 1
S trimer protein of the SARS-CoV-2 Alpha variant (from UniProt P0DTC2) (natural protein) | 1
S trimer protein of the SARS-CoV-2 Beta variant (from UniProt P0DTC2) (natural protein) | 1
S trimer protein of the SARS-CoV-2 Delta variant (from UniProt P0DTC2) (natural protein) | 1
